According to the supplement of paper PMC9112550, “Optimization of the antimicrobial peptide Bac7 by deep mutational scanning” (BMC Biology, 2022):

tested on: Escherichia coli TOP10; experiment: shrunken log2 fold change of peptide-encoding DNA abundance (4.5 h post-induction vs induction); higher = less antimicrobial activity (less host growth inhibition); settings: time post-induction: 4.5 h; library: site-saturation at positions 5, 18, 19, 20
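Also: peptides expressed intracellularly from a pBAD plasmid library in pooled LB shake-flask culture, induced with 0.3% L-arabinose, DNA abundance read by NGS, three biological replicates, DESeq2 with apeglm shrinkage.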

Row | Sequence | shrunken log2 fold change
1 | RRIRKRPPRLPRPRPRPCLGPRP | 0.0457
2 | RRIRPRPPRLPRPRPRPQWQPRP | -0.109
3 | RRIRFRPPRLPRPRPRPYGLPRP | -0.521
4 | RRIRRRPPRLPRPRPRPHNQPRP | -0.114
5 | RRIRVRPPRLPRPRPRPRKTPRP | 0.0951
6 | RRIRCRPPRLPRPRPRPCYMPRP | -0.234
7 | RRIRDRPPRLPRPRPRPVVYPRP | -0.349
8 | RRIRIRPPRLPRPRPRPTIKPRP | -0.611
9 | RRIRNRPPRLPRPRPRPCINPRP | -0.548
10 | RRIRARPPRLPRPRPRPDTWPRP | 1.13
11 | RRIRMRPPRLPRPRPRPKFYPRP | 0.0127
12 | RRIRNRPPRLPRPRPRPTILPRP | -0.742
13 | RRIRHRPPRLPRPRPRPQHAPRP | 0.0729
14 | RRIRVRPPRLPRPRPRPDTKPRP | -0.26
15 | RRIRNRPPRLPRPRPRPHHVPRP | -0.0011
16 | RRIRDRPPRLPRPRPRPHISPRP | -0.0535
17 | RRIRGRPPRLPRPRPRPSIMPRP | 0.16
18 | RRIRKRPPRLPRPRPRPPTNPRP | 0.654
19 | RRIRFRPPRLPRPRPRPLKHPRP | -0.475
20 | RRIRARPPRLPRPRPRPCVWPRP | 0.544
21 | RRIRYRPPRLPRPRPRPLRVPRP | -0.0922
22 | RRIRSRPPRLPRPRPRPLHSPRP | -0.0322
23 | RRIRWRPPRLPRPRPRPHLRPRP | 0.039
24 | RRIRERPPRLPRPRPRPGGMPRP | -0.02
25 | RRIRTRPPRLPRPRPRPAHCPRP | -0.168

Row | Sequence | shrunken log2 fold change
26 | RRIRHRPPRLPRPRPRPSCFPRP | -0.257
27 | RRIRVRPPRLPRPRPRPKERPRP | 0.0774
28 | RRIRPRPPRLPRPRPRPPTWPRP | 0.302
29 | RRIRTRPPRLPRPRPRPVVAPRP | 0.418
30 | RRIRFRPPRLPRPRPRPLPWPRP | -0.195
31 | RRIRWRPPRLPRPRPRPISSPRP | -0.0629
32 | RRIRWRPPRLPRPRPRPPIKPRP | -0.0713
33 | RRIRKRPPRLPRPRPRPCKKPRP | -0.0301
34 | RRIRTRPPRLPRPRPRPILRPRP | -0.0606
35 | RRIRDRPPRLPRPRPRPWCLPRP | -0.129
36 | RRIRCRPPRLPRPRPRPLECPRP | -0.354
37 | RRIRVRPPRLPRPRPRPKTIPRP | -0.26
38 | RRIRMRPPRLPRPRPRPFYAPRP | -0.47
39 | RRIRVRPPRLPRPRPRPMIIPRP | -1.25
40 | RRIRKRPPRLPRPRPRPKMWPRP | 0.363
41 | RRIRPRPPRLPRPRPRPTLQPRP | 0.353
42 | RRIRHRPPRLPRPRPRPNKSPRP | -0.252
43 | RRIRHRPPRLPRPRPRPMKSPRP | -0.00231
44 | RRIRTRPPRLPRPRPRPHQKPRP | -0.127
45 | RRIRPRPPRLPRPRPRPFHTPRP | -0.569
46 | RRIRSRPPRLPRPRPRPDAEPRP | 0.984
47 | RRIRQRPPRLPRPRPRPPIRPRP | -0.0146
48 | RRIRLRPPRLPRPRPRPVQKPRP | 0.113
49 | RRIRHRPPRLPRPRPRPNIFPRP | -0.0903
50 | RRIRKRPPRLPRPRPRPEFWPRP | 0.807

Row | Sequence | shrunken log2 fold change
51 | RRIRFRPPRLPRPRPRPKSMPRP | 0.102
52 | RRIRPRPPRLPRPRPRPSLYPRP | -0.326
53 | RRIRNRPPRLPRPRPRPYPMPRP | 0.133
54 | RRIRNRPPRLPRPRPRPSTFPRP | -0.276
55 | RRIRRRPPRLPRPRPRPITWPRP | -0.0299
56 | RRIRYRPPRLPRPRPRPNHIPRP | -1.27
57 | RRIRCRPPRLPRPRPRPKYYPRP | 0.167
58 | RRIRQRPPRLPRPRPRPLFVPRP | -0.495
59 | RRIRTRPPRLPRPRPRPPHEPRP | 0.373
60 | RRIRFRPPRLPRPRPRPQVQPRP | -0.0485
61 | RRIRGRPPRLPRPRPRPHRVPRP | 0.0916
62 | RRIRHRPPRLPRPRPRPFYFPRP | -0.355
63 | RRIRGRPPRLPRPRPRPTDCPRP | 0.275
64 | RRIRGRPPRLPRPRPRPWCWPRP | 0.682
65 | RRIRTRPPRLPRPRPRPQWEPRP | 0.0154
66 | RRIRARPPRLPRPRPRPNVVPRP | -0.0083
67 | RRIRKRPPRLPRPRPRPWVNPRP | 0.0319
68 | RRIRQRPPRLPRPRPRPKALPRP | -0.0462
69 | RRIRDRPPRLPRPRPRPDIFPRP | 0.171
70 | RRIRFRPPRLPRPRPRPDHEPRP | 0.193
71 | RRIRYRPPRLPRPRPRPSHVPRP | -1.58
72 | RRIRFRPPRLPRPRPRPHQRPRP | -0.183
73 | RRIRQRPPRLPRPRPRPVKAPRP | 0.198
74 | RRIRNRPPRLPRPRPRPAGKPRP | -0.0122
75 | RRIRTRPPRLPRPRPRPIELPRP | -0.0636

Row | Sequence | shrunken log2 fold change
76 | RRIRERPPRLPRPRPRPTHWPRP | 1.02
77 | RRIRCRPPRLPRPRPRPLFEPRP | 0.193
78 | RRIRDRPPRLPRPRPRPVHAPRP | 0.209
79 | RRIRARPPRLPRPRPRPRWLPRP | 0.68
80 | RRIRCRPPRLPRPRPRPGMVPRP | 0.0377
81 | RRIRCRPPRLPRPRPRPQLPPRP | -0.104
82 | RRIRSRPPRLPRPRPRPTFNPRP | -0.366
83 | RRIRPRPPRLPRPRPRPMWYPRP | -0.111
84 | RRIRIRPPRLPRPRPRPVMWPRP | -0.0605
85 | RRIRFRPPRLPRPRPRPVDKPRP | -0.022
86 | RRIRFRPPRLPRPRPRPITFPRP | -0.456
87 | RRIRERPPRLPRPRPRPEDAPRP | -0.079
88 | RRIRRRPPRLPRPRPRPHEAPRP | 0.0262
89 | RRIRCRPPRLPRPRPRPDRFPRP | 0.0616
90 | RRIRPRPPRLPRPRPRPDKCPRP | -0.432
91 | RRIRVRPPRLPRPRPRPVSKPRP | -0.249
92 | RRIRKRPPRLPRPRPRPWFKPRP | -0.0948
93 | RRIRVRPPRLPRPRPRPPERPRP | 0.257
94 | RRIRYRPPRLPRPRPRPVYCPRP | -0.416
95 | RRIRARPPRLPRPRPRPLYNPRP | -0.225
96 | RRIRRRPPRLPRPRPRPTVAPRP | 0.699
97 | RRIRMRPPRLPRPRPRPLRKPRP | 1.54
98 | RRIRARPPRLPRPRPRPNKWPRP | -0.0519
99 | RRIRARPPRLPRPRPRPNGTPRP | 0.021
100 | RRIRNRPPRLPRPRPRPISHPRP | -0.963

Row | Sequence | shrunken log2 fold change
101 | RRIRARPPRLPRPRPRPHFAPRP | 0.733
102 | RRIRSRPPRLPRPRPRPFMWPRP | -0.165
103 | RRIRGRPPRLPRPRPRPPHGPRP | 0.903
104 | RRIRIRPPRLPRPRPRPNHGPRP | -0.413
105 | RRIRCRPPRLPRPRPRPEECPRP | -0.0128
106 | RRIRFRPPRLPRPRPRPMPDPRP | -0.0671
107 | RRIRQRPPRLPRPRPRPETKPRP | 0.0652
108 | RRIRERPPRLPRPRPRPHERPRP | -0.00965
109 | RRIRKRPPRLPRPRPRPPDDPRP | 1.99
110 | RRIRRRPPRLPRPRPRPMWRPRP | 0.312
111 | RRIRRRPPRLPRPRPRPMQIPRP | 0.58
112 | RRIRARPPRLPRPRPRPNTSPRP | -0.0188
113 | RRIRFRPPRLPRPRPRPRGYPRP | -0.25
114 | RRIRDRPPRLPRPRPRPWSHPRP | 0.0226
115 | RRIRYRPPRLPRPRPRPGFGPRP | -0.0613
116 | RRIRPRPPRLPRPRPRPHYIPRP | -0.586
117 | RRIRRRPPRLPRPRPRPVAYPRP | 0.263
118 | RRIRQRPPRLPRPRPRPWCVPRP | -0.115
119 | RRIRWRPPRLPRPRPRPRYDPRP | -0.248
120 | RRIRYRPPRLPRPRPRPLSGPRP | -0.0308
121 | RRIRIRPPRLPRPRPRPRKFPRP | -0.000367
122 | RRIRMRPPRLPRPRPRPYTNPRP | -0.165
123 | RRIRGRPPRLPRPRPRPCCTPRP | 1.31
124 | RRIRNRPPRLPRPRPRPCVAPRP | -0.23
125 | RRIRVRPPRLPRPRPRPISAPRP | 1.18
